This experiment addresses SARS-CoV spike on S-pseudotyped MLV virions (SARS-CoV). Description: cell-based or functional assay.

COVA1-16 (antibody): the percent neutralization of pseudovirus at 200 µg, antibody alone came out at 28%.

The values are drawn from US20240376180A1.
